# Measured values reported in PMC6932757, “Inhibition of FLT1 ameliorates muscular dystrophy phenotype by increased vasculature in a mouse model of Duchenne muscular dystrophy” (PLoS Genetics, 2019).
# T1: mouse FLT1-FC chimeric protein with His-tag (mouse, UniProt P35969 23-759)
# T1 construct: FLT1 (VEGF receptor-1, VEGFR1), mouse, soluble form fused to FC; also called chimeric FLT1-FC; mouse soluble FLT1-FC chimeric protein; source: bought: R&D Systems (471-F1-100)
# T1 sequence (looked up): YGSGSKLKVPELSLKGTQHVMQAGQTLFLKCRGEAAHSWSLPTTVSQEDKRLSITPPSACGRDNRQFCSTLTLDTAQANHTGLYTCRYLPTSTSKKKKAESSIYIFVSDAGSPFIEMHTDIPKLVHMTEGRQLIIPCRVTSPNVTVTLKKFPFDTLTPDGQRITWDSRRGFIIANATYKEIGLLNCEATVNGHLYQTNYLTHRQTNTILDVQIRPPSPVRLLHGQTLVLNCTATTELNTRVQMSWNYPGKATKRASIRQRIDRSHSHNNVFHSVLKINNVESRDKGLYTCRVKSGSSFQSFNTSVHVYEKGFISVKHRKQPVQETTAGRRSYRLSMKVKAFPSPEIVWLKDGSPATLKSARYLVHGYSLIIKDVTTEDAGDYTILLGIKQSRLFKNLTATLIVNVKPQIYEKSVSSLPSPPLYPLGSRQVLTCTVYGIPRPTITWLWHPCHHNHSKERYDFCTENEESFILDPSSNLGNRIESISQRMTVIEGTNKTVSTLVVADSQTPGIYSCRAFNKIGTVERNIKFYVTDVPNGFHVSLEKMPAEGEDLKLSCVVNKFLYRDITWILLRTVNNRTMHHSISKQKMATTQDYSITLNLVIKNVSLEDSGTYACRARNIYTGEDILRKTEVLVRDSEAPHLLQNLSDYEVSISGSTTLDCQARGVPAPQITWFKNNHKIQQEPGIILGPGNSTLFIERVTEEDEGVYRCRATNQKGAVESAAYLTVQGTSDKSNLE
# Biological target: T1, mouse FLT1-FC chimeric protein with …
# Experiment: ELISA; mouse FLT1-FC (His-tag) coated on 96 well plates, blocked with 5% BSA; anti-FLT1 antibodies incubated, then mouse PlGF2; detected with biotin-conjugated anti-PlGF2 antibody and Streptavidin-HRP, TMB, 450 nm
# Conditions: both partners purified
binder,measurement,value
"recombinant mouse PlGF2 (ligand, UniProt P49764 19-158, looked up, Placenta growth factor 2 (PlGF2), mouse, recombinant; probably the mature secreted protein (surmised); source: bought: R&D Systems (465-PL-010/CF)) VHSQGALSAGNNSTEVEVVPFNEVWGRSYCRPMEKLVYILDEYPDEVSHIFSPSCVLLSRCSGCCGDEGLHCVPIKTANITMQILKIPPNRDPHFYVEMTFSQDVLCECRPILETTKAERRKTKGKRKRSRNSQTEEPHP",binding result,binds
